Data published in publication PMC3336217, “^111In-Labeled Cystine-Knot Peptides Based on the Agouti-Related Protein for Targeting Tumor Angiogenesis” (Journal of Biomedicine and Biotechnology, 2012).
Positions of bridges follow the written chain, without caps; N, C: chain ends. Residues, ends and D or L forms follow the SMILES beside them. *: point of attachment. DOTA = O=C(O)CN1CCN(CC(=O)O)CCN(CC(=O)*)CCN(CC(=O)O)CC1

Experiments:
in vitro = in vitro ADME; conditions: mouse, serum
Experimental: Radiolabeled AgRP* peptides were incubated in 0.01 M PBS (pH 7.4) at 37°C for 24 h and monitored for degradation by HPLC. Stability was also tested by incubating 0.74 MBq (20 μCi) ^111In-DOTA-AgRP-7C or ^111In-DOTA-AgRP-6E in 400 μL of mouse serum at 37°C for 2 h. Afterward, the mixture was re-suspended in 0.5 mL of DMF containing 5 μL of Triton X-100 and centrifuged at 16,000 g for 2 min. The supernatant, which contained >95% of the starting radioactivity, was filtered using a 10 K NanoSep device (Pall Corporation, East Hills, NY, USA). Greater than 99% of the radioactive material passed through this filter. The samples were analyzed by radio-HPLC, and the percentage of intact peptide was determined by quantifying peaks corresponding to the intact peptide and to the degradation products.
Figure 1 Stability analysis of ^111In-DOTA-AgRP-7C (a) and (b), and ^111In-DOTA-AgRP-6E (c) and (d) in PBS and mouse serum. The two radiopeptides were incubated with PBS for 24 h at […], and mouse serum for 2 h at 37°C.

in vivo = conditions: female, athymic nu/nu, mouse, iv, total radioactivity
Experimental: All animal studies were carried out in compliance with federal and local institutional rules for animal experimentation. Approximately, 10^7 U87MG cells were suspended in PBS and subcutaneously implanted in the left shoulders of female athymic nu/nu mice. Tumors were allowed to grow to a size of 0.5 cm (2-3 weeks) before imaging experiments were performed. For biodistribution studies, U87MG tumor-bearing mice (n = 3 for each group) were injected with ^111In-DOTA-AgRP-7C (0.259–0.37 MBq, […]) or ^111In-DOTA-AgRP-6E (0.296–0.444 MBq, 8–12 μCi) via the tail vein and sacrificed at different time points (0.5, 2, 24, and 48 h) after injection (p.i.). Tumor and normal tissues of interest were removed and weighed, and their radioactivity was measured with a γ-counter. Radioactivity uptake was expressed as the percent injected dose per gram of tissue (%ID/g). To test the in vivo αvβ3 integrin targeting specificity of the probe, U87MG tumor-bearing mice (n = 3 for each group) were injected via the tail vein with a mixture of ^111In-DOTA-AgRP-7C (0.259–0.37 MBq, 7–10 μCi) and 330 μg of c(RGDyK). The mice were sacrificed at 2 h p.i. and the biodistribution of the radiolabeled peptide was measured as above.
Quantitative data were expressed as mean ± SD. Means were compared using the Student t-test. A 95% confidence level was chosen to determine the significance between groups, with P values of less than 0.05 indicating significant differences.

In the case of `CC(C)C[C@@H]1NC(=O)[C@@H]2CSSC[C@@H]3NC(=O)[C@H]([C@@H](C)O)NC(=O)[C@H](C)NC(=O)[C@H](C)NC(=O)[C@@H]4CCCN4C(=O)[C@H](CC(=O)O)NC(=O)[C@H](CSSC[C@H](NC(=O)CNC(=O)CN4CCN(CC(=O)O)CCN(CC(=O)O)CCN(CC(=O)O)CC4)C(=O)N[C@@H](C(C)C)C(=O)N[C@@H](CCCNC(=N)N)C(=O)N[C@@H](CC(C)C)C(=O)N[C@@H](Cc4c[nH]cn4)C(=O)N[C@@H](CCC(=O)O)C(=O)N[C@@H](CO)C(=O)N2)NC(=O)[C@H](CSSC[C@@H](C(=O)N[C@@H](CCCNC(=N)N)C(=O)O)NC(=O)[C@H](Cc2ccc(O)cc2)NC(=O)[C@@H]2CSSC[C@H](NC(=O)[C@H](Cc4ccc(O)cc4)NC3=O)C(=O)N[C@@H](C(C)C)C(=O)N[C@@H](CCC(=O)O)C(=O)N[C@@H](CCCNC(=N)N)C(=O)NCC(=O)N[C@@H](CC(=O)O)C(=O)NCC(=O)N[C@@H](CC(N)=O)C(=O)N[C@@H](CCCNC(=N)N)C(=O)N[C@@H](CCCNC(=N)N)C(=O)N2)NC(=O)[C@@H]2CCCN2C(=O)[C@H](C(C)C)NC(=O)[C@H](CCC(N)=O)NC(=O)[C@H](CCC(N)=O)NC(=O)CNC1=O` [111In-DOTA-AgRP-6E, metal not drawn] ({DOTA}-GCVRLHESCLGQQVPCCDPAATCYCVERGDGNRRCYCR-OH; disulfide 2-17, 9-23, 16-37, 25-35), the remaining at 2 h, 1.85 MBq/mL (in vitro) is reported as > 95%, the tissue uptake at 0.5 h (in vivo; Blood uptake) is reported as 1.27 ± 0.53 %ID/g and the tissue uptake at 2 h (in vivo; Blood uptake) is reported as 0.06 ± 0.05 %ID/g. For the same molecule, the tissue uptake at 24 h (in vivo; Blood uptake) was 0.01 %ID/g, the tissue uptake at 0.5 h (in vivo; Bone uptake) was 1.18 ± 0.15 %ID/g and the tissue uptake at 2 h (in vivo; Bone uptake) was 0.56 ± 0.1 %ID/g. For the same molecule, the tissue uptake at 24 h (in vivo; Bone uptake) was 0.36 ± 0.04 %ID/g, the tissue uptake at 0.5 h (in vivo; Brain uptake) was 0.06 ± 0.01 %ID/g and the tissue uptake at 2 h (in vivo; Brain uptake) was 0.02 ± 0.01 %ID/g. The tissue uptake at 24 h (in vivo; Brain uptake) was 0.02 ± 0.01 %ID/g, the tissue uptake at 0.5 h (in vivo; Heart uptake) was 0.8 ± 0.24 %ID/g and the tissue uptake at 2 h (in vivo; Heart uptake) was 0.18 ± 0.06 %ID/g. It also gave a tissue uptake at 24 h (in vivo; Heart uptake) of 0.12 ± 0.02 %ID/g, a tissue uptake at 0.5 h (in vivo; Intestine uptake) of 2.04 ± 0.54 %ID/g and a tissue uptake at 2 h (in vivo; Intestine uptake) of 1.13 ± 0.14 %ID/g. It also gave a tissue uptake at 24 h (in vivo; Intestine uptake) of 0.93 ± 0.04 %ID/g, a tissue uptake at 0.5 h (in vivo; Kidneys uptake) of 15.4 ± 3.19 %ID/g and a tissue uptake at 2 h (in vivo; Kidneys uptake) of 14.7 ± 1.98 %ID/g. It also gave a tissue uptake at 24 h (in vivo; Kidneys uptake) of 6.87 ± 1.19 %ID/g, a tissue uptake at 0.5 h (in vivo; Liver uptake) of 0.87 ± 0.2 %ID/g and a tissue uptake at 2 h (in vivo; Liver uptake) of 0.52 ± 0.01 %ID/g. It also gave a tissue uptake at 24 h (in vivo; Liver uptake) of 0.48 ± 0.02 %ID/g, a tissue uptake at 0.5 h (in vivo; Lung uptake) of 1.86 ± 0.56 %ID/g and a tissue uptake at 2 h (in vivo; Lung uptake) of 0.54 ± 0.12 %ID/g. It also gave a tissue uptake at 24 h (in vivo; Lung uptake) of 0.27 ± 0.02 %ID/g, a tissue uptake at 0.5 h (in vivo; Muscle uptake) of 0.64 ± 0.09 %ID/g and a tissue uptake at 2 h (in vivo; Muscle uptake) of 0.15 ± 0.07 %ID/g. For the same molecule, the tissue uptake at 24 h (in vivo; Muscle uptake) was 0.07 ± 0.01 %ID/g, the tissue uptake at 0.5 h (in vivo; Pancreas uptake) was 0.57 ± 0.23 %ID/g and the tissue uptake at 2 h (in vivo; Pancreas uptake) was 0.2 ± 0.06 %ID/g. The tissue uptake at 24 h (in vivo; Pancreas uptake) was 0.14 ± 0.01 %ID/g, the tissue uptake at 0.5 h (in vivo; Spleen uptake) was 1.36 ± 0.26 %ID/g and the tissue uptake at 2 h (in vivo; Spleen uptake) was 0.83 ± 0.05 %ID/g. For the same molecule, the tissue uptake at 24 h (in vivo; Spleen uptake) was 0.65 ± 0.06 %ID/g, the tissue uptake at 0.5 h (in vivo; Stomach uptake) was 2.02 ± 0.47 %ID/g and the tissue uptake at 2 h (in vivo; Stomach uptake) was 0.87 ± 0.14 %ID/g. It also gave a tissue uptake at 24 h (in vivo; Stomach uptake) of 0.53 ± 0.02 %ID/g, a tissue uptake at 0.5 h (in vivo; Tumor uptake) of 1.76 ± 0.34 %ID/g and a tissue uptake at 2 h (in vivo; Tumor uptake) of 1.21 ± 0.21 %ID/g. The tissue uptake at 24 h (in vivo; Tumor uptake) was 0.89 ± 0.06 %ID/g, the tissue to tissue ratio at 0.5 h (in vivo; Tumor-to-blood ratio) was 1.71 ± 1.21 and the tissue to tissue ratio at 2 h (in vivo; Tumor-to-blood ratio) was 33 ± 23.3. The tissue to tissue ratio at 24 h (in vivo; Tumor-to-blood ratio) was 142 ± 3.39, the tissue to tissue ratio at 0.5 h (in vivo; Tumor-to-muscle ratio) was 2.75 ± 0.28 and the tissue to tissue ratio at 2 h (in vivo; Tumor-to-muscle ratio) was 9.2 ± 3.88. The tissue to tissue ratio at 24 h (in vivo; Tumor-to-muscle ratio) was 13.1 ± 1.94.
